The data set in a line: yeast display, Sf9 membrane polyspecificity reagent, FACS + sequencing; frameworks hold sequencing errors. Summed up:
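Nanobodies from a synthetic yeast display library (Saccharomyces cerevisiae BJ5465), induced 36–48 hours with galactose, were stained 1 hour at 4 °C with 10% biotinylated, detergent-solubilized Sf9 membrane reagent, enriched on streptavidin microbeads, then FACS-sorted. Anti-HA (expression) and streptavidin (reagent binding) fluorescence set low and high (top ~1%) gates. Polyreactivity labels come from the gate of origin. Genes were colony-PCR amplified, MiSeq 2 × 250 sequenced and filtered by CDR length.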
As for “QVQLVESGGGLVQAGGSLRLSCAASGFIFDYNAMGWYRQAPGKERELVDAISGGGGSTYYADSVKGRFTISRDNAKNTVFLLMNSLKPEDTSVYDCAKRYRGGYWGQGSQVTVSS”, the “polyreactivity (PSR sort gate)” value is “high polyreactivity”.
Consider “QVQLVESGGGLVQAGGSLRLSCAASGFIFDYYAMGWYRPAPAKERELVAAISCRGGTTYYADSVKGRFTISRDNAKNTVYLQMNSLKPEDTAVYYCAAGRFYGFGYGYWGQGTQVTVSS”, for which the “polyreactivity (PSR sort gate)” value is given as “high polyreactivity”.
For “QVQLVESGGGLVQAGGSLRLSCAASGFIFDYYAMGWYRQAPGKERELVAAITRDGGGTYYADSVKGRFTISRDNAKNTVYFQMNSLKPEDTAVYYCAARTAYYHGSKYYYRGQGTQVTVSS”, the “polyreactivity (PSR sort gate)” value was “high polyreactivity”.
As to “QVQLVESGGGLVQAGGSLRLSCAASGFIFDYYAMGWYRQAPGKERELVAAITSRGGSTYYADSVKGRFTISRDNAKNTVYLQMNSLKPEDTAVYYCAARRRSAEYNYWGQGTQVTVSS”, the “polyreactivity (PSR sort gate)” value was “high polyreactivity”.
As for “QVQLVESGGGLVQAGGSLRLSCAASGFIFEPNAMGWYRQAPGKERELVAAISWSGGSTYYADSVKGRFTISRDNAKNTVYLQMNSLKPEDTAVYYCNAAVRGVGELDYWGQGTQVTVSS”, the “polyreactivity (PSR sort gate)” value is “high polyreactivity”.
With “QVQLVESGGGLVQAGGSLRLSCAASGFIFEPNAMGWYRQAPGKERELVAAISWSGGSTYYADSVKGRFTISRDNAKNTVYLQMNSLKPEDTAVYYCNADITYAYYEYGSWGQGTQVTVSS”, the “polyreactivity (PSR sort gate)” value is listed as “high polyreactivity”.
For the sequence “QVQLVESGGGLVQAGGSLRLSCAASGFIFEPYAMGWYRQAPGKERELVAAISSGGSTYADSVKGRFTISRDNAKNTVYLQMNSLKPEDTAVYYCAADSYYSVWGFYYWGQGTQVTVSS”, the “polyreactivity (PSR sort gate)” value is listed as “low polyreactivity”.
For the sequence “QVQLVESGGGLVQAGGSLRLSCAASGFIFERNTMGWYRQAPGKERELVATISRSAGNTYYADSVKGRFTISRDNANNTVYLQMNSLKPEDSAAYYCAKDHRTRGYDYWGQGTQVSVSS”, the “polyreactivity (PSR sort gate)” value was “low polyreactivity”.
In the case of “QVQLVESGGGLVQAGGSLRLSCAASGFIFERYTMGWYRQAPGKERELVAAISDSGGSTYYADSVKGRFTISRDNAKNTVYLQMNSLKPEDTAVYYCATTQYTTYGRRYYWGQGTQVTVSS” it was “high polyreactivity”.
“QVQLVESGGGLVQAGGSLRLSCAASGFIFFAYAMGWYRQAPGKERELVAAISRTGGSTYYADSVKGRFTISRDNAKNTVYLQMNSLKPEDTAVYYCARPKYAWSYSRGNYWGQGTQVTVSS”: the “polyreactivity (PSR sort gate)” value was “high polyreactivity”.
The result for “QVQLVESGGGLVQAGGSLRLSCAASGFIFFEYAMGWYRQAPGKERELVAAISWSDDTTYYADSVKGRFTISRDNAKNTVYLQMNSLKPEDTAVYYCAAEKVSGQGEMDYWGQGTQVTVSS” reads “low polyreactivity”; that for “QVQLVESGGGLVQAGGSLRLSCAASGFIFFFYAMGWYSQAPGKERELVASISWNGGSTYYADSVKGRFTISRDNAKNTVYLQMNSLKPEDTAVYYCNKDPVSLWYYSKDYTYDYWGQGTQVTVSS”, “low polyreactivity”; that for “QVQLVESGGGLVQAGGSLRLSCAASGFIFFGEYVMGWYRQAPGKEREFVAAISRSSATTYYADSVKGRFTISRDTAKNTVYLQMNSLKPEDTAVYYCNAGDLGRRWGMDYWGQGTQVTVSS”, “low polyreactivity”.
The result for “QVQLVESGGGLVQAGGSLRLSCAASGFIFFGEYVMGWYRQAPGKEREFVAAITDSDGSTYYADSVKGRFTISRDNAKNTVYLQMTSLKPEDTAVYYCAAERVCSDMDYWGQGTQVTVSS” reads “low polyreactivity”.
Turning to “QVQLVESGGGLVQAGGSLRLSCAASGFIFFLYAMGWYRQAPGKERELVARISGGGDSTSYADSVKGRFTISRDNAKNTVYLQMNSLKPEDTAVYYCAADVWGSGGELGYWGQGTQVTVSS”, the “polyreactivity (PSR sort gate)” value is “low polyreactivity”.
As to “QVQLVESGGGLVQAGGSLRLSCAASGFIFFRYAMGWYRQAPGKERELVAAISRTGGRTYYADSVKGRFTISRDNAKNTVYLQMNSLKPEDTAVYYCAARRHSRVKYRDYWGQGTQVTVSS”, the “polyreactivity (PSR sort gate)” value is on record as “high polyreactivity”.
The result for “QVQLVESGGGLVQAGGSLRLSCAASGFIFFYAMGWYRQAPGKERELVASIDSGVSTDYADSVKGRFTISRDNAKNTVYLQMNSLTPEDTAVYYCAADPWSSLNYDYWGQGTQVTVSS” reads “low polyreactivity”; that for “QVQLVESGGGLVQAGGSLRLSCAASGFIFFYYAMGWYRQAHGKERELVAAISASGGSTYYADSVKGRFTISRDNAKNTVYLQMNSLKPEDTAVYYCATDPISRARLYGQRDYWGQGTQVTVSS”, “high polyreactivity”; that for “QVQLVESGGGLVQAGGSLRLSCAASGFIFGDNAMGWYRQAPGKERELVAAINSSGGRTYYADSVKGRFTISRDNAKNTVYLQMNSLKPEDTAVYYCNAAYGIASYGSSYYWGQGTQVTVSS”, “high polyreactivity”.
For the sequence “QVQLVESGGGLVQAGGSLRLSCAASGFIFGDYAMGWYRQAPGKERELVAAISRSGGRTYYADSVKGRFTISRDNAKNTVYLQMNSLKPEDTAVYYCAKSSLNIYDYWGQGTQVTVSS”, the “polyreactivity (PSR sort gate)” value is listed as “high polyreactivity”.
On to “QVQLVESGGGLVQAGGSLRLSCAASGFIFGGNAMGWFRQAPGKERELVAAIRSGGSTYYADSVKGRFTISRDNAKNTVYLQMNSLKPEDTAVYYCAAELYDVYDLDYWGQGTQVTVSS”, for which the “polyreactivity (PSR sort gate)” value is reported as “low polyreactivity”.
In the case of “QVQLVESGGGLVQAGGSLRLSCAASGFIFGGNAMGWYRQAPGNERELVARISSGGITSYADSVKGRFTISRDNAKNSVYLQMYSLKPEDTAVYYCAADDYVSTQDDSYYEYDYWGQGTQVTVSS” it was “low polyreactivity”; in that of “QVQLVESGGGLVQAGGSLRLSCAASGFIFGGYAMGWYRQAPGKERELVAAISSGGGTTYADSVKGRFTISRDNAKYTVYLQMNSLKPEDTAVYYGAAVTRDYRNDRRRQRYYYWGQGTQVTVSS”, “high polyreactivity”.
“QVQLVESGGGLVQAGGSLRLSCAASGFIFGGYAMGWYRQAPGKERELVAAITWSGGNTYYADSVKGRFTISRDNAKNTVYLQMNSLKPEDTAVYYCAADYWTKYGYWGLGTQVTVSS”: the “polyreactivity (PSR sort gate)” value is “low polyreactivity”.
On to “QVQLVESGGGLVQAGGSLRLSCAASGFIFGGYPMGWYRQAPGKERELVAAITIRGGSTSYADSVKGRFTISRDIAMNTVYLQMNSLKPEDSAVYYCNRQSRNAGGYYWGQGTQVTVSS”, for which the “polyreactivity (PSR sort gate)” value is “low polyreactivity”.
The result for “QVQLVESGGGLVQAGGSLRLSCAASGFIFGHYAMGWYRQAPGKERELVAGIISSGGSTHYADSVKGRFTISRDNAKNTVYLQMNSLKPEDTAVYFCAADVYRYYAGSRYYYWGQGTQVTVSS” reads “low polyreactivity”; that for “QVQLVESGGGLVQAGGSLRLSCAASGFIFGINAMGWYRQAPGKERELVAAISKRTGSTYYADSVKGRFTISRDTAKNTVYLQMNSLKPEDTAVYYCNVVRYNGLDKYDYWGQGTQVTVSS”, “high polyreactivity”.
Turning to “QVQLVESGGGLVQAGGSLRLSCAASGFIFGIYAMGWYRQAPGKEREFVAAITGSAGSTYYADSVKGRFTISRDNAKNTVYLQMNSLKPEDTAVYYCAAVLRTHRYGGYNYWGQGSQVTVSS”, the “polyreactivity (PSR sort gate)” value is on record as “low polyreactivity”.
On to “QVQLVESGGGLVQAGGSLRLSCAASGFIFGLYAMGWYRQAPGKERELVAAISWSGGSTYYADSVKGRFTISRDNAKNTVYLQMNSLKPEDTAVYYCAKRGGYGYEYYYWGQGTQVTVSS”, for which the “polyreactivity (PSR sort gate)” value is “high polyreactivity”.
For the sequence “QVQLVESGGGLVQAGGSLRLSCAASGFIFGLYAMGWYRQAPGKERELVAAITWRGSTYYADSVKGRFTISRDNAKNTVYLQMNSLKPEDTAVYYCNDVRSAYILSNDYWGQGTQVTVSS”, the “polyreactivity (PSR sort gate)” value is reported as “high polyreactivity”.
The result for “QVQLVESGGGLVQAGGSLRLSCAASGFIFGNYALGWYRQAPWKERELVAGISGTGGSTYYADSVKGRFTISRDNAKNTVYLQMNSLKPEDTAVYYCAARIFKRQSFDYWGQGTQVTVSS” reads “high polyreactivity”.
As for “QVQLVESGGGLVQAGGSLRLSCAASGFIFGPYTMGWYRQAPGKERELVAAINNSGSTYYADSVKGRFTISRDNAKNTVYLQMNSLKPEDTAVYYCAAEPIIFVRYDYWGQGTQVTVSS”, the “polyreactivity (PSR sort gate)” value was “low polyreactivity”.
For “QVQLVESGGGLVQAGGSLRLSCAASGFIFGRNAMGWYRQAPGKERELVAGISSSGVRTFYADSVKGRFTISRDNAKNTVYLQMNSLKPEDTAVYYCATRGRVYPTKYSLDEDYWGQGTQVTVSS”, the “polyreactivity (PSR sort gate)” value is reported as “high polyreactivity”.
The result for “QVQLVESGGGLVQAGGSLRLSCAASGFIFGRYAMGWYRQAPGKEREFVAAITWRGGNTYYADSVKGRFTISRDNAKNTVYLQMNSLKPEDTAVYYCAKKTAGHPWGPIYDYWGQGTQVTVSS” reads “high polyreactivity”; that for “QVQLVESGGGLVQAGGSLRLSCAASGFIFGSYAMGWSRQAPGKERELVDAITRGGGNTYYADSVKGRFTISRDNAKNTVYLQMNSLKPEDTAVYYCAAVWGKRGYYYWGQGTQVTVSS”, “high polyreactivity”.
The result for “QVQLVESGGGLVQAGGSLRLSCAASGFIFGSYAMGWYRQAPGKERELVAAITSGTTTYYADSVKGRFTISRDNAKNTVYLQMNSLKPEDTAVYYCAATLIYHYWQLFIISTMGYWGQGTQVTVSS” reads “low polyreactivity”; that for “QVQLVESGGGLVQAGGSLRLSCAASGFIFGTYAMGWYRHAPGKERELVAAISVGGGSTYYADSVKGRFTISRDNAKNTVYLQMNSLKPEDTAVYYCAAVQLFQKHQITYVANEYWGQGTQVTVSS”, “low polyreactivity”.
In the case of “QVQLVESGGGLVQAGGSLRLSCAASGFIFGTYAMGWYRQAPGKERELVAAISVGGGSTYYADSVKGRFTISRDKAKNTVYLQMNSLKPEDTADYYCAAVQLYQKHQITYVAHEYWGQGTQVTVSS” it was “low polyreactivity”; in that of “QVQLVESGGGLVQAGGSLRLSCAASGFIFGTYAMGWYRQAPGKERELVAAITGSGGDTYYADSVKGRFTISRDNAKNTVYLQMNSLKPEDTAVYYCAAVRPPTPSRRREDYWGQGTQVTVSS”, “low polyreactivity”.
Take “QVQLVESGGGLVQAGGSLRLSCAASGFIFGTYVMGLYRTAPGKERELLAAISESGGRTYYADSVKGRFTISRDNAKNTVYIQMNSLIPEDTAVYYCAKVRHIRFHYYYGYQSYYYWGQGTQVTVSS”: the “polyreactivity (PSR sort gate)” value was “high polyreactivity”.
On to “QVQLVESGGGLVQAGGSLRLSCAASGFIFGVNAMGWYRQAPGKERELVAAIRWRGGSTYYADSVKGRFTISRDNAKNTVYLQMNSLKPEDTAVYYCAAARFVGGSGYVRILYYWGQGTQVTVSS”, for which the “polyreactivity (PSR sort gate)” value is reported as “high polyreactivity”.
